Measurements taken from paper PMC10649420, “Expression Patterns and Functional Analysis of Three SmTAT Genes Encoding Tyrosine Aminotransferases in Salvia miltiorrhiza” (International Journal of Molecular Sciences, 2023).

Legend:
Assay in all cases: aminotransferase assay, product absorbance, microplate reader
Assay type in all cases: biochemical, Salvia miltiorrhiza
SmTAT3 = conditions: 100 μM PLP, 30 °C, 30 min, 20 μg/mL enzyme
From the text: aminotransferase assay, product absorbance, microplate reader on SmTAT3

[1] = substrate: O=C(O)C(=O)Cc1ccccc1; conditions: 10 mM glutamate, 100 μM PLP, 30 °C, 30 min, 1 μg/mL enzyme, reverse reaction
From the text: (§1) aminotransferase assay, product absorbance, microplate reader on SmTAT1

[2] = substrate: O=C(O)C(=O)Cc1ccc(O)cc1; conditions: 10 mM glutamate, 100 μM PLP, 30 °C, 30 min, 1 μg/mL enzyme, reverse reaction
From the text: as §1

[3] = substrate: N[C@@H](Cc1ccc(O)cc1)C(=O)O; conditions: 10 mM alpha-ketoglutarate, 100 μM PLP, 30 °C, 30 min, 1 μg/mL enzyme
From the text: as §1

[4] = substrate: N[C@@H](Cc1ccccc1)C(=O)O; conditions: 10 mM alpha-ketoglutarate, 100 μM PLP, 30 °C, 30 min, 1 μg/mL enzyme
From the text: as §1

[5] = substrate: O=C(O)C(=O)Cc1ccccc1; conditions: 10 mM glutamate, 100 μM PLP, 30 °C, 30 min, 20 μg/mL enzyme, reverse reaction
From the text: (§2) aminotransferase assay, product absorbance, microplate reader on SmTAT2

[6] = substrate: O=C(O)C(=O)Cc1ccc(O)cc1; conditions: 10 mM glutamate, 100 μM PLP, 30 °C, 30 min, 20 μg/mL enzyme, reverse reaction
From the text: as §2

[7] = substrate: N[C@@H](Cc1ccc(O)cc1)C(=O)O; conditions: 10 mM alpha-ketoglutarate, 100 μM PLP, 30 °C, 30 min, 20 μg/mL enzyme
From the text: as §2

[8] = substrate: N[C@@H](Cc1ccccc1)C(=O)O; conditions: 10 mM alpha-ketoglutarate, 100 μM PLP, 30 °C, 30 min, 20 μg/mL enzyme
From the text: as §2

[9] = 10 mM glutamate, reverse reaction

`N[C@@H](Cc1ccccc1)C(=O)O` [phenylalanine] showed a Km (SmTAT3; 10 mM alpha-ketoglutarate) of 5470 ± 3230 µM.

`O=C(O)C(=O)Cc1ccccc1` [phenylpyruvate] was tested, and the Km (SmTAT3; [9]) was 3910 ± 2010 µM.

`O=C(O)C(=O)Cc1ccc(O)cc1` [4-hydroxyphenylpyruvate] was tested, and the Km (SmTAT3; [9]) was 2220 ± 220 µM.

In the case of `N[C@@H](Cc1ccc(O)cc1)C(=O)O` [tyrosine], the Km (SmTAT3; 10 mM alpha-ketoglutarate) is reported as 2730 ± 1610 µM.

B1: SmTAT1 (Salvia miltiorrhiza) (protein)
chain: MELQNPAQEIDAPTTITIKGILGLLMSSTDPKESGKRVISLGIGDPTAYSCFHASNAAQEGVVEALRSTKFNGYAPTAGLPQTREAIAEYLSRDLPYKLPADSVYVTAGCTQAIEIALSVLARPGANILLPRPCFPIYGLCASFRNIEVRYFDLHPEQGWEVDLDAVADLADHNTVAMVIINPGNPCGNVYSYQHLKKIAETAKRLGIVVIADEVYGHLAFGANPFVPMGIFGSIAPVVTLGSLSKRWLVPGWRLGWLVINDPDGSLMSPKFVERIKKYCDICGGPATFIQAAVPEIVEQTQEVFFRKTINILKQTSDICYQKIEDINGITCPTKPKGAMAFMVKLNLSRMKDISDDIDFCFKLAKEESVIILPGLAVGLKNWIRITFAVDVPALEEAMERLKSFCERHSY
notes: full ORF 1236 bp (about 411 residues) with GST tag (pGEX-4T-1), soluble from E. coli Arctic Express (DE3)
Work on B1 yielded a Km [1] of 710 ± 210 µM, a Vmax [1] of 3.63 µmol/min/mg and a kcat [1] of 10.4 ± 0.39 s⁻¹. The kcat/Km [1] was 16300 ± 4620 M⁻¹ s⁻¹, the Km [2] was 2770 ± 520 µM and the Vmax [2] was 3.19 µmol/min/mg. The kcat [2] was 9.21 ± 0.78 s⁻¹, the kcat/Km [2] was 3500 ± 940 M⁻¹ s⁻¹ and the Km [3] was 310 ± 110 µM. It also gave a Vmax [3] of 6.88 µmol/min/mg, a kcat [3] of 19.8 ± 0.93 s⁻¹ and a kcat/Km [3] of 74400 ± 29400 M⁻¹ s⁻¹. For the same molecule, the Km [4] was 3080 ± 990 µM, the Vmax [4] was 4.36 µmol/min/mg and the kcat [4] was 12.6 ± 1.43 s⁻¹. The kcat/Km [4] was 4680 ± 2020 M⁻¹ s⁻¹.

B2: SmTAT2 (Salvia miltiorrhiza) (protein)
chain: MPNSTERERERELSMENGGSAAARWRFEGNERLILAGGVTVRGVLNTVIGNLDGNDTRPVIPLGHGDPSAFPSFRTSPFAEDAVCSAVRSTKFNGYSSTVGIPAARSAVAEYLSKDLPYKLSPDDVFLTIGCTQALEAVVTVLARPGANLLLPRPGFPYYEARAGFCSLEFRHFDLLPEQDWEVDLASVEALADENTVAMVIINPGNPCGNVFKYEHLKKVAETARKLGILVISDEVYDHLTFGSNPFVPMGVFASIAPILTLGSISKRWIVPGWRLGWLVTNDPDGILTKQGIVDSIKGFLNISADPATFMQGAVPQILENTPSDFFQKIVSTLRETADICYERSKEIPCITCPSRPEGSMFAMVKLNLSLLEGIEDDMDFCCKLAKEESVILLPGFAVGLKNWLRVTFAIEPSSLDDGFLRIKAFHQRHAKKQ
Work on B2 yielded a Km [5] of 3940 ± 990 µM, a Vmax [5] of 0.057 µmol/min/mg and a kcat [5] of 0.17 ± 0.02 s⁻¹. For the same molecule, the kcat/Km [5] was 50 ± 20 M⁻¹ s⁻¹, the Km [6] was 480 ± 160 µM and the Vmax [6] was 0.448 µmol/min/mg. The kcat [6] was 1.35 ± 0.08 s⁻¹, the kcat/Km [6] was 3230 ± 1240 M⁻¹ s⁻¹ and the Km [7] was 3470 ± 1690 µM. The Vmax [7] was 0.0486 µmol/min/mg, the kcat [7] was 0.15 ± 0.03 s⁻¹ and the kcat/Km [7] was 60 ± 40 M⁻¹ s⁻¹. For the same molecule, the Km [8] was 6930 ± 3390 µM and the Vmax [8] was 0.109 µmol/min/mg.
